Measurements as given in the supplement of paper PMC6757056.
± gives the standard deviation of the averaged measurements.

B1: library; a variant is named by its letters at N, in order (parent)
chain: GCUGUCACCGAGAAACUGUGAAGUAUAUCUUAAACCUGGGCACUUAAAAGAUAUAUGGAGUUAGUAGUGCAACCUGCUCGGUCUGAUGAGUCCNNNNNNGGACGAAACAGC

Columns and labels:
cyclic di-GMP [1] = variants of: B1; assay: normalized RNA/DNA level without ligand (relative to sTRSVctl = 100) (log10 (% of sTRSVctl)); HEK293T; ligand: cyclic di-GMP (c-di-GMP-II aptamer); higher = less ribozyme self-cleavage, higher mRNA level; conditions: reporter: mCherry (pCS4076), ligand present: no
Method in brief: (§1)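 Total RNA, extracted with EDTA 72 h after HEK293T cells were transfected with 4 µg per 6-well well of reporter-linked ribozyme switch library plasmids, was reverse-transcribed, amplified, barcoded and sequenced. Ligand, if used, was added 1 h before transfection. RNA level was derived from RNA reads divided by DNA reads and normalized to a spiked-in non-cleaving sequence or to the top sequences. This was multiplied by 100 and log10-transformed, with the top set of 25 sequences and a ≥100 DNA read minimum.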

cyclic di-GMP [2] = variants of: B1; assay: normalized RNA/DNA level with ligand (relative to sTRSVctl = 100) (log10 (% of sTRSVctl)); HEK293T; ligand: cyclic di-GMP (c-di-GMP-II aptamer); ligand concentration (+) RNA-Seq: 1 mM; higher = less ribozyme self-cleavage, higher mRNA level; conditions: reporter: mCherry (pCS4076), ligand present: yes
Method in brief: as §1

Variant | normalized RNA/DNA level without ligand (log10) (cyclic di-GMP [1]) | normalized RNA/DNA level with ligand (log10) (cyclic di-GMP [2])
GCUGUCACCGAGAAACUGUGAAGUAUAUCUUAAACCUGGGCACUUAAAAGAUAUAUGGAGUUAGUAGUGCAACCUGCUCGGUCUGAUGAGUCCAUUGCAGGACGAAACAGC [AUUGCA] | 1.67 ± 0.055 | 1.81 ± 0.095
GCUGUCACCGAGAAACUGUGAAGUAUAUCUUAAACCUGGGCACUUAAAAGAUAUAUGGAGUUAGUAGUGCAACCUGCUCGGUCUGAUGAGUCCCUUGAGGGACGAAACAGC [CUUGAG] | 1.68 ± 0.017 | 1.79 ± 0.09
GCUGUCACCGAGAAACUGUGAAGUAUAUCUUAAACCUGGGCACUUAAAAGAUAUAUGGAGUUAGUAGUGCAACCUGCUCGGUCUGAUGAGUCCCUUGAUGGACGAAACAGC [CUUGAU] | 1.66 ± 0.023 | 1.82 ± 0.13
GCUGUCACCGAGAAACUGUGAAGUAUAUCUUAAACCUGGGCACUUAAAAGAUAUAUGGAGUUAGUAGUGCAACCUGCUCGGUCUGAUGAGUCCUUUGAUGGACGAAACAGC [UUUGAU] | 1.649 ± 0.014 | 1.82 ± 0.12
GCUGUCACCGAGAAACUGUGAAGUAUAUCUUAAACCUGGGCACUUAAAAGAUAUAUGGAGUUAGUAGUGCAACCUGCUCGGUCUGAUGAGUCCUUUGAGGGACGAAACAGC [UUUGAG] | 1.71 ± 0.038 | 1.83 ± 0.12
GCUGUCACCGAGAAACUGUGAAGUAUAUCUUAAACCUGGGCACUUAAAAGAUAUAUGGAGUUAGUAGUGCAACCUGCUCGGUCUGAUGAGUCCUUUGCAGGACGAAACAGC [UUUGCA] | 1.78 ± 0.018 | 1.85 ± 0.1
GCUGUCACCGAGAAACUGUGAAGUAUAUCUUAAACCUGGGCACUUAAAAGAUAUAUGGAGUUAGUAGUGCAACCUGCUCGGUCUGAUGAGUCCUUUGCCGGACGAAACAGC [UUUGCC] | 1.838 ± 0.011 | 1.89 ± 0.079
GCUGUCACCGAGAAACUGUGAAGUAUAUCUUAAACCUGGGCACUUAAAAGAUAUAUGGAGUUAGUAGUGCAACCUGCUCGGUCUGAUGAGUCCAUUGAUGGACGAAACAGC [AUUGAU] | 1.63 ± 0.029 | 1.79 ± 0.061
GCUGUCACCGAGAAACUGUGAAGUAUAUCUUAAACCUGGGCACUUAAAAGAUAUAUGGAGUUAGUAGUGCAACCUGCUCGGUCUGAUGAGUCCCUUGCCGGACGAAACAGC [CUUGCC] | 1.82 ± 0.019 | 1.9 ± 0.077
GCUGUCACCGAGAAACUGUGAAGUAUAUCUUAAACCUGGGCACUUAAAAGAUAUAUGGAGUUAGUAGUGCAACCUGCUCGGUCUGAUGAGUCCCUUGCAGGACGAAACAGC [CUUGCA] | 1.66 ± 0.018 | 1.77 ± 0.1
GCUGUCACCGAGAAACUGUGAAGUAUAUCUUAAACCUGGGCACUUAAAAGAUAUAUGGAGUUAGUAGUGCAACCUGCUCGGUCUGAUGAGUCCGUUGCAGGACGAAACAGC [GUUGCA] | 1.81 ± 0.038 | 1.87 ± 0.1
GCUGUCACCGAGAAACUGUGAAGUAUAUCUUAAACCUGGGCACUUAAAAGAUAUAUGGAGUUAGUAGUGCAACCUGCUCGGUCUGAUGAGUCCGUUGCCGGACGAAACAGC [GUUGCC] | 1.76 ± 0.013 | 1.87 ± 0.1
GCUGUCACCGAGAAACUGUGAAGUAUAUCUUAAACCUGGGCACUUAAAAGAUAUAUGGAGUUAGUAGUGCAACCUGCUCGGUCUGAUGAGUCCGUUGAUGGACGAAACAGC [GUUGAU] | 1.61 ± 0.033 | 1.76 ± 0.14
